Source: IntAct's records for PubMed 22474355

B1: RNA-silencing factor ers1 (Schizosaccharomyces pombe (strain ATCC 38366 / 972)), O94717 (parent)
chain: MGKVSANNQSGFFKFYIDTALLLNAEFISSFTNCINSEYNGKVKISYSSSSQQFKVIVYEEHKREAFSLFEEIVQKLKRESTVYKKPRLDIHPFGQLHYDFTTLLNFQRYLDLGYGIEDVKIKENEDIVKSKVGKKPTSSDFYIPCLIKPKIITPFEWEGNFKQVIYSPTVYNGSFKRLFYLPDNNDLLKEFAHATNTKYKASLKDNKIVVLANNDQDINAMLEKMKHIENLVSQKVYEYPEETLVYAGKIAPCQLKFLKLKFENEILYTAMHTTSIFKSVFNILGSFYTMRLLRNKHDGDSYELVPVFAKNPSKTPPCNDNFKIFSDDIKLIGCKIFAGVSLNFSSPKPAHRFYELNKTSSNLSIPVLQKPSNFHSSSTELSDNSIHQGRRAVDPVVNQNNPSNFEEMIMNKLNKLPTIDKQILGTSSLTHFQDKTTAIEHSINKSNSKQPPRFKFQLPPRPTSNTLPLEPEEELVTRYSVSSDGNTVDEAITKQSQTFQLVNSNEFNEVNANDVHKSLRQNCAKLDFDDSKSKNLLSVECLELDKGSDCSTPKSGSLTPSIDMKFLRLQDEKMDDLGDNYYTILMSSNPVSSYGVGSLYLFQPKIVCSEKYINHEEIDNMNLKSLHRWLSRSLHVLQSFSGEIELNLEFGVILYPNISSDVSACSHGFMNIYKDLNLPRSYFADCITKSVSNIDSLLNTPVKILFGRTEYTYPLIEHEVLDSKNYFVFKGSLLFTDDKRNKTEDSTVFFSMICSSKLDQFAFYKDSKQSSTCTINFPLALWDSRLRIETKVPLNDAILTEFSKSIRFRNVNKDLLLVFGNMEDRVIIHSVTRINENSVPFNKNLLPHSLEFILKCSKVKSYDISPSSINSKEAFVCLDRSKESKPIESCFSLSIQSVYMQSQFKYNNSIRAGETAPWKLANKQFIGGAITENVSDLYTAAIIMVNQLGGIHPTI
partner: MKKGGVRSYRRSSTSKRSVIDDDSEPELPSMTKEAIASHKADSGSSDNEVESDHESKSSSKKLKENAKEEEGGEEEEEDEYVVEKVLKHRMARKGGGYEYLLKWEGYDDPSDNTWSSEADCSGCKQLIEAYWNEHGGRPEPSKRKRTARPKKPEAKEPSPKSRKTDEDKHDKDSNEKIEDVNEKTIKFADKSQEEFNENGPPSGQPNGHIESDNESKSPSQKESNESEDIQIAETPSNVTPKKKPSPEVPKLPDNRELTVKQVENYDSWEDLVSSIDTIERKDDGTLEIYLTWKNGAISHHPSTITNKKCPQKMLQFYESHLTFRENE
B2: RNA-silencing factor ers1 (Schizosaccharomyces pombe (strain ATCC 38366 / 972)), O94717 (parent)
chain: B1 chain
partner: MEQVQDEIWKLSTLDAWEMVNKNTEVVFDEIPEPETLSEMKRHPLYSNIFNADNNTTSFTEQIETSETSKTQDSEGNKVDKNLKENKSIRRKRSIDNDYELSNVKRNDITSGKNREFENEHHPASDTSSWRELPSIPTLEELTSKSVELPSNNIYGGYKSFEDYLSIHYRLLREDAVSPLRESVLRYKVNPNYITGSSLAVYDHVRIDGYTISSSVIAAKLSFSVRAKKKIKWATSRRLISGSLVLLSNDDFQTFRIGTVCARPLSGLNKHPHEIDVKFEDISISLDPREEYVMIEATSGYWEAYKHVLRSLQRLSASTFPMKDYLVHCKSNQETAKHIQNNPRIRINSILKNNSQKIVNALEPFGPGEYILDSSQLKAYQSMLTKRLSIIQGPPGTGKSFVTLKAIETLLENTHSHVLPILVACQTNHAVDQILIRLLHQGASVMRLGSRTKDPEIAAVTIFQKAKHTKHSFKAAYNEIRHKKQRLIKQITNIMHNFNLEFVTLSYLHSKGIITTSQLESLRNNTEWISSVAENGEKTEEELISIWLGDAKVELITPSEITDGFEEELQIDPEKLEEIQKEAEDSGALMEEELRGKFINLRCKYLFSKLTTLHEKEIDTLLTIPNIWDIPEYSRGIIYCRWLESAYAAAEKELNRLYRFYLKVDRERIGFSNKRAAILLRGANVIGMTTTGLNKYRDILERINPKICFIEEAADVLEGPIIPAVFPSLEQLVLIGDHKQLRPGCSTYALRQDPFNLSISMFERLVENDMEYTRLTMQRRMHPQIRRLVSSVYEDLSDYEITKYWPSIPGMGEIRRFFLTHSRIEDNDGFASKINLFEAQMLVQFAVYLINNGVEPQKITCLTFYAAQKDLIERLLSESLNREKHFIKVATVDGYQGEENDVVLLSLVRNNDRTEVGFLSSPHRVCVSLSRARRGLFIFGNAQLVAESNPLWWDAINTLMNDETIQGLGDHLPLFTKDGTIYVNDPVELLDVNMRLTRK

Variants of: B1
Details: with swi6_schpo swi6, P40381

| Variant | effect of a mutation on the interaction |
| --- | --- |
| S234P | decreasing interaction strength |

Variants of: B2
Details: with hrr1_schpo hrr1, O74465

| Variant | effect of a mutation on the interaction |
| --- | --- |
| S234P | decreasing interaction strength |
